These results are taken from PMC2193914.

In general, stoichiometry N refers to the number of molecules, sites or subunits per partner or assembly.

The target of the experiment is rat KLRE1-HA (short splice variant), in transiently transfected 293T cells (rat) (UniProt Q80ZC8). Description: SDS-PAGE under nonreducing and reducing conditions with Western blot. In general terms: Immunoblotting shows a protein as a band on a membrane.

On to “rat KLRE1-HA (short splice variant), in transiently transfected 293T cells (from UniProt Q80ZC8 1-226) (receptor)”, for which the stoichiometry N stood at 2.
